Source: patent US20220184222A1, “BICYCLE TOXIN CONJUGATES AND USES THEREOF” (BicycleTx Limited, priority 2019, published 2022)
Entries after “also recorded” stand apart in the source; their conditions may differ. Starred links: 1 amine or outer side, 2 acyl side, 3 side chain; linkers in the order of their positions; H or OH if unused. Non-standard residues stand in square brackets, D forms with d. Residues, ends and D or L forms follow the SMILES beside them. *: point of attachment. Dolaproine = CO[C@@H]([C@@H]1CCCN1)[C@@H](C)C(=O)O; Dil = CC[C@H](C)[C@H](NC)[C@@H](CC(=O)O)OC; PABC = O=C(OCc1ccc(N[*:1])cc1)[*:2]; X1 = O=C(CCCC(=O)*)ON1C(=O)CCC1=O; X2 = C[C@@H](N*)[C@@H](O)c1ccccc1; Cit = NC(=O)NCCC[C@H](N)C(=O)O; NMeV = CN[C@H](C(=O)O)C(C)C

Test: In vivo PK in PC-3 CDX model: LC-MS quantitation of MMAE and BT5528 in plasma and tumour (Example 4)
Design: species or system Mus Musculus
Conditions: single i.v. dose of BT5528
Protocol: The objective of the research is to evaluate the in vivo PK/PD of test agents in treatment of PC-3 CDX model in Balb/c nude mice.
Each mouse was inoculated subcutaneously at the right flank with PC-3 tumor cells (10×10^6) in 0.2 mL of PBS for tumor development. The animals were randomized and dosed when the average tumor volume reached approximately 440 mm^3 for the PK/PD study. The test article administration and time points in each group were shown in the experimental design table.
Mice were randomly grouped based on tumor volume and dosed as experimental design. Plasma, serum, muscle and tumors were collected at 1 h, 2 h, 8 h, 24 h, 48 h, 72 h and 96 h post dosing.
Two protease inhibitor products were used: Complete™ mini EDTA-free protease inhibitor cocktail tablets and AEBSF (200 mM, prepared by dissolving 100 mg in water (2086 μL)). The AEBSF solution was stored at −20° C. when not in use. For the dilution of plasma, a solution (inhibitor solution A) was prepared by dissolving 12 Complete™ tablets in 50/50 methanol/water (12 mL) and adding 200 mM AEBSF (12 μL). […]
Samples, standards, QCs and blanks were transferred (10 μL diluted plasma, 30 μL tissue homogenate) to a 96-well plate on ice. […] The plate was mixed briefly and sealed ready for injection onto the LC-MS/MS. […]

SMILES: CC[C@H](C)[C@@H]([C@@H](CC(=O)N1CCC[C@H]1[C@H](OC)[C@@H](C)C(=O)N[C@H](C)[C@@H](O)c1ccccc1)OC)N(C)C(=O)[C@@H](NC(=O)[C@H](C(C)C)N(C)C(=O)OCc1ccc(NC(=O)[C@H](CCCNC(N)=O)NC(=O)[C@@H](NC(=O)CCCC(=O)ON2C(=O)CCC2=O)C(C)C)cc1)C(C)C [BT5528] (X1-V[Cit][PABC][NMeV]V[Dil][Dolaproine]-X2)
- MMAE concentrations in tumour: accumulation of MMAE in tumor tissue; also recorded: high MMAE concentrations in tumour, which is stable from 2h to >48h
- exposure of BT5528 and MMAE in plasma: short systemic exposure; also recorded: transient exposure of both BT5528 and MMAE in plasma
